Laboratory results taken from the supplement of paper PMC10724198.
± gives the standard deviation of the averaged measurements.

Tested on: Saccharomyces cerevisiae
Test: protein stability index of tFT-peptide fusion (C-terminal peptide) (PSI (0-1 scale)); higher = more stable (slower turnover)
Details: genetic background: cdc34-1; temperature: 37 C
Protocol: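 MPS profiling in S. cerevisiae of the tFT-X12 degron library: putative degron peptides plus stable controls, 12 aa, fused to the C-terminus of a sfGFP-mCherry timer. Cells are FACS-sorted into 8 mCherry/sfGFP bins and deep-sequenced. PSI runs from 0 (unstable) to 1 (stable). Backgrounds are wild type, das1Δ and doa10Δ at 30 °C, and wild type, das1Δ, cdc34-1 and cdc53-1 at 37 °C; 2-3 technical replicates each.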
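Further: PSI is a weighted mean of sequencing reads over stability bins, variants kept only with over 10 reads, mCherry proximal and sfGFP distal, peptide attached via GGGS linker.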

| Sequence | protein stability index |
| --- | --- |
| HIVYCSSEQIKC | 0.53 ± 0.048 |
| HLLMLAMVGFQC | 0.5752 ± 0.0029 |
| HVLGSIYWAIFV | 0.497 ± 0.02 |
| IGFFFACFFSVF | 0.419 ± 0.057 |
| IGWKLNRIQKNI | 0.6858 ± 0.0052 |
| IGYLGSELRFVS | 0.688 ± 0.094 |
| IISICLYFLVRC | 0.223 ± 0.003 |
| IKKKKRKKIKAN | 0.634 ± 0.048 |
| IKWRCLFCVCVL | 0.477 ± 0.011 |
| ILFRRRLCCFLK | 0.349 ± 0.03 |
| ILLHSFFSFYLL | 0.484 ± 0.0054 |
| ILLYCVLIDPYS | 0.203 ± 0.008 |
| ILVLKFLRLLSA | 0.525 ± 0.015 |
| ISPCLVRLWYRI | 0.462 ± 0.053 |
| IVCYFFAFSFMW | 0.288 ± 0.014 |
| IVEVNCILMWIF | 0.423 ± 0.024 |
| IVGVLAVLVRPV | 0.484 ± 0.029 |

| Sequence | protein stability index |
| --- | --- |
| IVIFQTAYVVRI | 0.159 ± 0.0011 |
| IVVVVRLSPILG | 0.293 ± 0.016 |
| IWIHSVGVECTS | 0.487 ± 0.011 |
| IWYGLFWLRFWV | 0.513 ± 0.044 |
| IYNIIFKYRTIT | 0.525 ± 0.036 |
| KCWSGTVMVRLG | 0.675 ± 0.062 |
| KERHRNKRKQIA | 0.659 ± 0.011 |
| KERNKISQRKLT | 0.65 ± 0.009 |
| KFKRLTKFYARQ | 0.555 ± 0.031 |
| KHKIIGKYQRQI | 0.704 ± 0.13 |
| KIIKERIRRIKI | 0.653 ± 0.013 |
| KIRGYLMPLTLL | 0.56 ± 0.037 |
| KKKKNIKIKKQI | 0.74 ± 0.17 |
| KLKTSHILIKQT | 0.665 ± 0.059 |
| KLSLRYLLVSLI | 0.513 ± 0.013 |
| KMIVWKESIKRE | 0.689 ± 0.065 |

Same assay, conditions: genetic background: cdc53-1; temperature: 37 C

| Sequence | protein stability index |
| --- | --- |
| HIVYCSSEQIKC | 0.6419 ± 0.0016 |
| HLLMLAMVGFQC | 0.688 ± 0.0015 |
| HVLGSIYWAIFV | 0.493 ± 0.028 |
| IGFFFACFFSVF | 0.444 ± 0.012 |
| IGWKLNRIQKNI | 0.735 ± 0.043 |
| IGYLGSELRFVS | 0.741 ± 0.011 |
| IISICLYFLVRC | 0.326 ± 0.073 |
| IKKKKRKKIKAN | 0.728 ± 0.019 |
| IKWRCLFCVCVL | 0.466 ± 0.012 |
| ILFRRRLCCFLK | 0.434 ± 0.0052 |
| ILLHSFFSFYLL | 0.503 ± 0.0068 |
| ILLYCVLIDPYS | 0.2634 ± 0.0013 |
| ILVLKFLRLLSA | 0.555 ± 0.024 |
| ISPCLVRLWYRI | 0.574 ± 0.021 |
| IVCYFFAFSFMW | 0.399 ± 0.058 |
| IVEVNCILMWIF | 0.489 ± 0.026 |

| Sequence | protein stability index |
| --- | --- |
| IVGVLAVLVRPV | 0.561 ± 0.019 |
| IVIFQTAYVVRI | 0.233 ± 0.013 |
| IVVVVRLSPILG | 0.397 ± 0.099 |
| IWIHSVGVECTS | 0.494 ± 0.033 |
| IWYGLFWLRFWV | 0.572 ± 0.018 |
| IYNIIFKYRTIT | 0.581 ± 0.014 |
| KCWSGTVMVRLG | 0.72 ± 0.017 |
| KERHRNKRKQIA | 0.741 ± 0.021 |
| KERNKISQRKLT | 0.654 ± 0.034 |
| KFKRLTKFYARQ | 0.684 ± 0.029 |
| KHKIIGKYQRQI | 0.751 ± 0.02 |
| KIIKERIRRIKI | 0.632 ± 0.1 |
| KIRGYLMPLTLL | 0.6 ± 0.0051 |
| KLKTSHILIKQT | 0.729 ± 0.0099 |
| KLSLRYLLVSLI | 0.602 ± 0.045 |
| KMIVWKESIKRE | 0.7388 ± 0.001 |
